Reference: the supplement of paper PMC9112550, “Optimization of the antimicrobial peptide Bac7 by deep mutational scanning” (BMC Biology, 2022)

Test system: Escherichia coli TOP10
Assay: shrunken log2 fold change of peptide-encoding DNA abundance (4.5 h post-induction vs induction); higher = less antimicrobial activity (less host growth inhibition)
Details: time post-induction: 4.5 h; library: site-saturation at positions 5, 18, 19, 20
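Also: peptides expressed intracellularly from a pBAD plasmid library in pooled LB shake-flask culture, induced with 0.3% L-arabinose, DNA abundance read by NGS, three biological replicates, DESeq2 with apeglm shrinkage.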

Sequence | shrunken log2 fold change
RRIRGRPPRLPRPRPRPVFVPRP | 0.324
RRIRHRPPRLPRPRPRPYAIPRP | -0.149
RRIRCRPPRLPRPRPRPMQSPRP | -0.0765
RRIRIRPPRLPRPRPRPSQYPRP | -0.555
RRIRMRPPRLPRPRPRPNDSPRP | -0.0147
RRIRPRPPRLPRPRPRPQWKPRP | 0.0366
RRIRDRPPRLPRPRPRPCYQPRP | -0.0177
RRIRQRPPRLPRPRPRPMADPRP | 0.207
RRIRQRPPRLPRPRPRPKRNPRP | 0.29
RRIRHRPPRLPRPRPRPIHKPRP | -1.25
RRIRSRPPRLPRPRPRPTGAPRP | 0.633
RRIRERPPRLPRPRPRPAQNPRP | 0.269
RRIRWRPPRLPRPRPRPHPAPRP | 0.35
RRIRMRPPRLPRPRPRPHETPRP | -0.00213
RRIRIRPPRLPRPRPRPEIDPRP | -0.157
RRIRWRPPRLPRPRPRPARKPRP | -0.0849
RRIRQRPPRLPRPRPRPIGSPRP | -0.00968
RRIRERPPRLPRPRPRPCKTPRP | 0.0029
RRIRRRPPRLPRPRPRPVDQPRP | 0.348
RRIRKRPPRLPRPRPRPGWDPRP | 0.364
RRIRNRPPRLPRPRPRPRPSPRP | 0.443
RRIRKRPPRLPRPRPRPRAAPRP | 1.13
RRIRDRPPRLPRPRPRPCRCPRP | 0.0101
RRIRTRPPRLPRPRPRPVDSPRP | 0.0391
RRIRRRPPRLPRPRPRPCKMPRP | -0.0577

Sequence | shrunken log2 fold change
RRIRCRPPRLPRPRPRPGFDPRP | 0.104
RRIRGRPPRLPRPRPRPSYFPRP | -0.0109
RRIRDRPPRLPRPRPRPYLEPRP | -0.0399
RRIRYRPPRLPRPRPRPLSPPRP | -0.352
RRIRVRPPRLPRPRPRPGQVPRP | 0.0448
RRIRGRPPRLPRPRPRPMIVPRP | 0.554
RRIRKRPPRLPRPRPRPRHAPRP | 0.727
RRIRSRPPRLPRPRPRPKTKPRP | 0.000308
RRIRIRPPRLPRPRPRPGRRPRP | 0.18
RRIRFRPPRLPRPRPRPCGLPRP | -0.00916
RRIRARPPRLPRPRPRPPIEPRP | 0.188
RRIRDRPPRLPRPRPRPEYDPRP | 0.00968
RRIRNRPPRLPRPRPRPPMEPRP | -0.203
RRIRHRPPRLPRPRPRPLYVPRP | -0.272
RRIRGRPPRLPRPRPRPRMQPRP | 0.494
RRIRCRPPRLPRPRPRPQTWPRP | 0.295
RRIRIRPPRLPRPRPRPHQDPRP | -0.122
RRIRSRPPRLPRPRPRPGGHPRP | 0.161
RRIRHRPPRLPRPRPRPAMMPRP | -0.114
RRIRNRPPRLPRPRPRPVHEPRP | -0.00149
RRIRPRPPRLPRPRPRPKWTPRP | -0.0336
RRIRDRPPRLPRPRPRPYGDPRP | -0.0996
RRIRDRPPRLPRPRPRPNTPPRP | -0.0665
RRIRIRPPRLPRPRPRPPQHPRP | -0.107
RRIRARPPRLPRPRPRPRFQPRP | 0.466

Sequence | shrunken log2 fold change
RRIRIRPPRLPRPRPRPIVKPRP | -0.0118
RRIRMRPPRLPRPRPRPFDQPRP | 0.00237
RRIRTRPPRLPRPRPRPFWWPRP | 0.299
RRIRIRPPRLPRPRPRPAQKPRP | -0.00244
RRIRARPPRLPRPRPRPHPKPRP | 0.508
RRIRSRPPRLPRPRPRPICGPRP | -0.056
RRIRQRPPRLPRPRPRPVKEPRP | -0.0231
RRIRFRPPRLPRPRPRPYEFPRP | -0.245
RRIRWRPPRLPRPRPRPAGFPRP | 0.272
RRIRYRPPRLPRPRPRPVGEPRP | 0.207
RRIRERPPRLPRPRPRPHYYPRP | -0.83
RRIRIRPPRLPRPRPRPEEFPRP | -0.0304
RRIRNRPPRLPRPRPRPSTDPRP | -0.0474
RRIRCRPPRLPRPRPRPDHFPRP | -0.175
RRIRCRPPRLPRPRPRPHFVPRP | -0.23
RRIRIRPPRLPRPRPRPPEYPRP | -0.186
RRIRGRPPRLPRPRPRPVEHPRP | 0.117
RRIRVRPPRLPRPRPRPMRMPRP | -0.00559
RRIRYRPPRLPRPRPRPQWHPRP | -0.638
RRIRVRPPRLPRPRPRPFNVPRP | -0.185
RRIRRRPPRLPRPRPRPTEAPRP | 0.0804
RRIRERPPRLPRPRPRPAITPRP | -0.401
RRIRERPPRLPRPRPRPKNDPRP | -0.467
RRIRARPPRLPRPRPRPYNVPRP | -0.284
RRIRERPPRLPRPRPRPCRDPRP | 0.0284

Sequence | shrunken log2 fold change
RRIRWRPPRLPRPRPRPKREPRP | 0.0441
RRIRERPPRLPRPRPRPMNSPRP | -0.0427
RRIRLRPPRLPRPRPRPVNVPRP | -0.00443
RRIRKRPPRLPRPRPRPRDWPRP | 0.935
RRIRIRPPRLPRPRPRPLNYPRP | -0.384
RRIRFRPPRLPRPRPRPNHMPRP | -0.567
RRIRRRPPRLPRPRPRPNQWPRP | 0.128
RRIRTRPPRLPRPRPRPYWDPRP | -0.0758
RRIRFRPPRLPRPRPRPCEWPRP | 0.134
RRIRFRPPRLPRPRPRPHYKPRP | -0.408
RRIRWRPPRLPRPRPRPDFWPRP | 0.582
RRIRNRPPRLPRPRPRPPAHPRP | 0.626
RRIRPRPPRLPRPRPRPQLAPRP | 0.417
RRIRSRPPRLPRPRPRPFQCPRP | -0.461
RRIRTRPPRLPRPRPRPPQWPRP | 0.274
RRIRSRPPRLPRPRPRPQFRPRP | -0.0597
RRIRMRPPRLPRPRPRPLFWPRP | 0.554
RRIRLRPPRLPRPRPRPEFPPRP | -0.0973
RRIRKRPPRLPRPRPRPSPRPRP | 1.04
RRIRVRPPRLPRPRPRPSGQPRP | 0.0937
RRIRHRPPRLPRPRPRPFKPPRP | -0.163
RRIRARPPRLPRPRPRPLWTPRP | 0.115
RRIRFRPPRLPRPRPRPPRGPRP | 0.685
RRIRWRPPRLPRPRPRPIVAPRP | 0.541
RRIRERPPRLPRPRPRPMRWPRP | 0.472

Sequence | shrunken log2 fold change
RRIRRRPPRLPRPRPRPSMDPRP | 0.0821
RRIRSRPPRLPRPRPRPYERPRP | -0.0323
RRIRLRPPRLPRPRPRPGWFPRP | 0.147
RRIRWRPPRLPRPRPRPTPNPRP | 0.519
RRIRERPPRLPRPRPRPMNMPRP | -0.176
RRIRDRPPRLPRPRPRPRYYPRP | -0.175
RRIRQRPPRLPRPRPRPQLAPRP | 0.0428
RRIRVRPPRLPRPRPRPYSHPRP | -1.25
RRIRERPPRLPRPRPRPTQPPRP | 0.254
RRIRWRPPRLPRPRPRPARPPRP | 0.566
RRIRARPPRLPRPRPRPNECPRP | -0.409
RRIRFRPPRLPRPRPRPYHQPRP | -0.963
RRIRHRPPRLPRPRPRPYDWPRP | -0.0123
RRIRYRPPRLPRPRPRPCVIPRP | 0.0735
RRIRLRPPRLPRPRPRPVYMPRP | -0.283
RRIRHRPPRLPRPRPRPAEMPRP | -0.01
RRIRVRPPRLPRPRPRPSVCPRP | 0.0223
RRIRFRPPRLPRPRPRPWEAPRP | -0.0969
RRIRHRPPRLPRPRPRPPTWPRP | 0.0706
RRIRWRPPRLPRPRPRPYFAPRP | -0.216
RRIRDRPPRLPRPRPRPILMPRP | 0.303
RRIRVRPPRLPRPRPRPFASPRP | 0.0656
RRIRGRPPRLPRPRPRPMMGPRP | 0.409
RRIRRRPPRLPRPRPRPKQNPRP | 0.631
RRIRMRPPRLPRPRPRPRSIPRP | 0.667
